One block for each binder: values may come before it.
Tests used:
[1] = molecular target: T1, Flag tagged recombinant DLL3 (Adipogen) (Homo sapiens (Human), UniProt Q9NYJ7 27-492); assay: flow cytometry, percent of T cells that recognise recombinant DLL3, Donor 419
T1 construct: Bought reagent; also called Flag-DLL3
T1 sequence: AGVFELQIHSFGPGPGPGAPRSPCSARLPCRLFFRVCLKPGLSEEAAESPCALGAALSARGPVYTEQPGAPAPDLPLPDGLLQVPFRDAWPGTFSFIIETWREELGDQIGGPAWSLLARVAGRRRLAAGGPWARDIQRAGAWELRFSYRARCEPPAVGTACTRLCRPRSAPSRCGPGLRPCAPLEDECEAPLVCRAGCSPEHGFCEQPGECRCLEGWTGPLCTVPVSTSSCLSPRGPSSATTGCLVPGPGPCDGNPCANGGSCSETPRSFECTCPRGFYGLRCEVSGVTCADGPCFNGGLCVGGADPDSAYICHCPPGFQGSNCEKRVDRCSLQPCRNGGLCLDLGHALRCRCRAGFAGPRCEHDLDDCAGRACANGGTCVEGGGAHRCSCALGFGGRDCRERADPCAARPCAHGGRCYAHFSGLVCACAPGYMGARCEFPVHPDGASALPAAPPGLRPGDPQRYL
Experimental: (§1) To determine the percentage of T cells that were successfully transduced with DLL3 CAR, T cells were first incubated with 1 ug/ml Flag tagged recombinant DLL3 (Adipogen) in PBS+1% BSA for 20 minutes at 4 C.

[2] = molecular target: T1, Flag tagged recombinant DLL3 (Adipogen); assay: flow cytometry, percent of T cells that recognise recombinant DLL3, Donor 503
Experimental: as §1

[3] = molecular target: T1, Flag tagged recombinant DLL3 (Adipogen); assay: flow cytometry, percent of T cells that recognise recombinant DLL3, Donor 116
Experimental: as §1

[4] = molecular target: T1, Flag tagged recombinant DLL3 (Adipogen); assay: flow cytometry, percent of T cells that recognise recombinant DLL3, Donor 117
Experimental: as §1

[5] = molecular target: T1, Flag tagged recombinant DLL3 (Adipogen); assay: flow cytometry, primary T cells with the CAR, 1 ug/ml Flag tagged recombinant DLL3, PE anti-Flag
Experimental: as §1

B4: 3B1 (other)
CAR: QVQLQQSGPGLVKPSQTLSLTCAISGDSVSSNTTAWKWSRQSPSKGLEWLGWTYYRSKWYYDYTVSVKSRITINPDTSKNQFSLQLNSVTPEDTAVYYCARWIFHDAFDIWGQGTMVTVSSGGGGSGGGGSGGGGSGGGGSQSALTQPPSASGTPGQRVTISCSGSSSNIGSNTVNWYQQLPGTAPKLLIYTNNQRPSGVPDRFSGSKSGTSASLAISGLQSEDEADYFCSTWDDSLNGPVFGGGTKLTVLTTTPAPRPPTPAPTIASQPLSLRPEACRPAAGGAVHTRGLDFACDIYIWAPLAGTCGVLLLSLVITKRGRKKLLYIFKQPFMRPVQTTQEEDGCSCRFPEEEEGGCELRVKFSRSADAPAYQQGQNQLYNELNLGRREEYDVLDKRRGRDPEMGGKPRRKNPQEGLYNELQKDKMAEAYSEIGMKGERRRGKGHDGLYQGLSTATKDTYDALHMQALPPR
notes: also called anti-DLL3 CAR with 3B1 scFv, on primary T cells
Transduction efficiency [1]: 6.15%
Transduction efficiency [2]: 7.95%

B6: 3B11 (other)
CAR: QVQLQQSGPGLVKPSQTLSLTCAISGDSVSSNSVVWNWIRQSPSRGLEWLGRTYYRSKWYDDYAVSVKSRITINPDTSKNQFSLQLNSVTPEDTAVYHCARGGIVGAPDAFDIWGQGTMVTVSSGGGGSGGGGSGGGGSGGGGSQSVLTQPPSASGTPGQRVTISCSGSSSNIGSDPVSWYQQFPGTAPKLLIYTNNQRPSGVPDRFSGSKSGTSASLAISGLQSEDEADYYCAAWDDSLNGHVFGTGTKVTVLTTTPAPRPPTPAPTIASQPLSLRPEACRPAAGGAVHTRGLDFACDIYIWAPLAGTCGVLLLSLVITKRGRKKLLYIFKQPFMRPVQTTQEEDGCSCRFPEEEEGGCELRVKFSRSADAPAYQQGQNQLYNELNLGRREEYDVLDKRRGRDPEMGGKPRRKNPQEGLYNELQKDKMAEAYSEIGMKGERRRGKGHDGLYQGLSTATKDTYDALHMQALPPR
notes: also called anti-DLL3 CAR with 3B11 scFv, on primary T cells
Transduction efficiency [1]: 57.3%
Transduction efficiency [2]: 65.8%

B8: 10A2 (other)
CAR: QVQLQQSGPGLVKPSETLSLTCAISGDSVSSNSATWNWIRQSPSRGLEWLGRTYYRSEWYNDYAVSVKSRITINPDTSKNHLSLHLNSVTPEDTAVYYCAGGGIVGAPDGFDVWGQGTMVTVSSGGGGSGGGGSGGGGSGGGGSQSVLTQPPSASGTPGQRVTISCSGSSSNIGSDPVIWYQQLPRTAPKLLIYSNNQRPSGVPDRFSGSKSGTSASLAISGLQSEDEADYYCAAWDDSLNGYVFGTGTKVTVLTTTPAPRPPTPAPTIASQPLSLRPEACRPAAGGAVHTRGLDFACDIYIWAPLAGTCGVLLLSLVITKRGRKKLLYIFKQPFMRPVQTTQEEDGCSCRFPEEEEGGCELRVKFSRSADAPAYQQGQNQLYNELNLGRREEYDVLDKRRGRDPEMGGKPRRKNPQEGLYNELQKDKMAEAYSEIGMKGERRRGKGHDGLYQGLSTATKDTYDALHMQALPPR
notes: also called anti-DLL3 CAR with 10A2 scFv, on primary T cells
Transduction efficiency [1]: 58.5%
Transduction efficiency [2]: 67.6%

B9: 5G2 (other)
CAR: QVQLQQSGPGLVKPSQTLSLTCAISGDSVSSNSAVWNWIRQSPSRGLEWLGWTYYRSKYYNDYAVSLKSRITINPDTSKNQFSLQLNSLTPEDTAVYYCTRGGIVGAPDGFDIWGQGTMVTVSSGGGGSGGGGSGGGGSGGGGSQSALTQPPSASGTPGQRVTISCSGSNSNIGSNPINWYQQLPGTAPKLLIYSNNQRPSGVPDRFSGSKSGTSASLAISGLQSEDEADYYCAAWDDSLNGHVFGTGTKVTVLTTTPAPRPPTPAPTIASQPLSLRPEACRPAAGGAVHTRGLDFACDIYIWAPLAGTCGVLLLSLVITKRGRKKLLYIFKQPFMRPVQTTQEEDGCSCRFPEEEEGGCELRVKFSRSADAPAYQQGQNQLYNELNLGRREEYDVLDKRRGRDPEMGGKPRRKNPQEGLYNELQKDKMAEAYSEIGMKGERRRGKGHDGLYQGLSTATKDTYDALHMQALPPR
notes: also called anti-DLL3 CAR with 5G2 scFv, on primary T cells
Transduction efficiency [1]: 36.7%
Transduction efficiency [2]: 42.8%

The next lines start with the values.

Transduction efficiency [1]: 33.4%
Transduction efficiency [2]: 45.1%
B1: 11A8 (other)
CAR: QVQLQQSGPGLVKPSQTLSLTCAISGDSVSSNSATWNWIRQSPSTGLEWLARTYYRSKWYNDYEVSVKSQITINPDTSKNQFSLQLNSVTPEDTAVYYCARGGIVGAPDAFDIWGQGTMVTVSSGGGGSGGGGSGGGGSGGGGSQSVLTQPPSASGTPGQGVTISCSGSSSNIGSNPVNWYQQLPGTAPKLLIYSNNQRPSGVPDRFSDSKSGTSASLAISGLQSEDEADYYCSAWDDWLNGYVFGTGTKVTVLTTTPAPRPPTPAPTIASQPLSLRPEACRPAAGGAVHTRGLDFACDIYIWAPLAGTCGVLLLSLVITKRGRKKLLYIFKQPFMRPVQTTQEEDGCSCRFPEEEEGGCELRVKFSRSADAPAYQQGQNQLYNELNLGRREEYDVLDKRRGRDPEMGGKPRRKNPQEGLYNELQKDKMAEAYSEIGMKGERRRGKGHDGLYQGLSTATKDTYDALHMQALPPR
notes: also called anti-DLL3 CAR with 11A8 scFv, on primary T cells

Transduction efficiency [3]: 37.2%
Transduction efficiency [4]: 37.7%
Rec-DLL3 gate, percent of live CD3+ cells [5]: 37.2%
B2: 2A6.C5 (other)
CAR: QVQLQESGPGLVKPSETLSLTCTVSNVSISSYYWSWIRQPPGKGLEWIGYIYYSGTTNYNPSLKSRVTMSVDTSKNQFSLKLSSVTAADTAVYFCARLSNWGFAFDIWGQGTMVTFSSGGGGSGGGGSGGGGSGGGGSEIVLTQSPGTLSLSPGERATLSCRASQTISSSYLAWYQQKPGQAPRLLIYGASSRATGIPDRFSGSGSGTEFTLTISRLEPEDFAVYYCQQYGWSPITFGQGTRLEIKTTTPAPRPPTPAPTIASQPLSLRPEACRPAAGGAVHTRGLDFACDIYIWAPLAGTCGVLLLSLVITKRGRKKLLYIFKQPFMRPVQTTQEEDGCSCRFPEEEEGGCELRVKFSRSADAPAYQQGQNQLYNELNLGRREEYDVLDKRRGRDPEMGGKPRRKNPQEGLYNELQKDKMAEAYSEIGMKGERRRGKGHDGLYQGLSTATKDTYDALHMQALPPR
notes: also called anti-DLL3 CAR with 2A6.C5 scFv, on primary T cells

Transduction efficiency [1]: 6.01%
Transduction efficiency [2]: 6.41%
B3: 2404.6H1 (other)
CAR: QVQLVESGGGVVQPGRSLRLSCAASGFTFSSYGMHWVRQTPGKGLEWVAVISYDGNSNYYADSVKGRFTISRDNSKNTLYLQMNSLRAEDTAVYYCARDGATVTSYYYYGMDVWGQGTTVTVSSGGGGSGGGGSGGGGSGGGGSEIVLTQSPGTLSLSPGERATLSCRASQSVSRTYLAWYHQKPGQAPRLLIYGASSRATGISDRFSGSGSGTDFTLTISRLEPEDFAVYYCQQYGTSPITFGQGTRLEIKTTTPAPRPPTPAPTIASQPLSLRPEACRPAAGGAVHTRGLDFACDIYIWAPLAGTCGVLLLSLVITKRGRKKLLYIFKQPFMRPVQTTQEEDGCSCRFPEEEEGGCELRVKFSRSADAPAYQQGQNQLYNELNLGRREEYDVLDKRRGRDPEMGGKPRRKNPQEGLYNELQKDKMAEAYSEIGMKGERRRGKGHDGLYQGLSTATKDTYDALHMQALPPR
notes: also called anti-DLL3 CAR with 2404.6H1 scFv, on primary T cells

Transduction efficiency [3]: 46.1%
Transduction efficiency [4]: 47.4%
Rec-DLL3 gate, percent of live CD3+ cells [5]: 46.1%
B5: 2D3 (other)
CAR: QVQLQESGPGLVKPSETLSLTCTVSDNSISNYYWSWIRQPPGKGLEWIAYIYYSGTTNYNPSLKSRVTISLDTSKNQFSLKLSSVTAADTAVYYCARLFNWGFAFDIWGQGTMVTVSSGGGGSGGGGSGGGGSGGGGSEIVMTQSPATLSVSPGERATLSCRASQSVSSNLAWYQQKPGQAPRLLIYGASTRATGIPARFSGSGSGTEFTLTISSLQSEDFAVYYCQQYNNWPLTFGGGTKVEIKTTTPAPRPPTPAPTIASQPLSLRPEACRPAAGGAVHTRGLDFACDIYIWAPLAGTCGVLLLSLVITKRGRKKLLYIFKQPFMRPVQTTQEEDGCSCRFPEEEEGGCELRVKFSRSADAPAYQQGQNQLYNELNLGRREEYDVLDKRRGRDPEMGGKPRRKNPQEGLYNELQKDKMAEAYSEIGMKGERRRGKGHDGLYQGLSTATKDTYDALHMQALPPR
notes: also called anti-DLL3 CAR with 2D3 scFv, on primary T cells

Transduction efficiency [1]: 54.8%
Transduction efficiency [2]: 62.8%
B7: 11E4 (other)
CAR: QVQLQESGPGLVKPSETLSLTCTVSGGSISSYYWSWIRQSPGKGLEWIGYVYYSDITNYNPSLKSRVTISVDTSKNQFSLNLNSVTAADTAFYFCARIGVAGFYFDYWGQGTLVTVSSGGGGSGGGGSGGGGSGGGGSEIVLTQSPDTLSLSPGERATLSCRASQSVSRRYLAWYQQKPGQAPRLLIYGASSRATGIPDRFSGSGSGTDFTLTISRLEPEDFEVYYCQQYGTSPITFGQGTRLEIKTTTPAPRPPTPAPTIASQPLSLRPEACRPAAGGAVHTRGLDFACDIYIWAPLAGTCGVLLLSLVITKRGRKKLLYIFKQPFMRPVQTTQEEDGCSCRFPEEEEGGCELRVKFSRSADAPAYQQGQNQLYNELNLGRREEYDVLDKRRGRDPEMGGKPRRKNPQEGLYNELQKDKMAEAYSEIGMKGERRRGKGHDGLYQGLSTATKDTYDALHMQALPPR
notes: also called anti-DLL3 CAR with 11E4 scFv, on primary T cells

Transduction efficiency [1]: 2.35%
Transduction efficiency [2]: 3.18%
B10: 4E1 (other)
CAR: QVQLQQSGPGLVKPSQTLSLTCAISGDNVSTNSAAWNWIRQSPSRGLEWLGWTYYRSKWYNDYAVSLKSRININPDTSKNQFSLQLNSVTPEDTAVYYCARWVNRDVFDIWGQGTMVTVSSGGGGSGGGGSGGGGSGGGGSQSALTQPASVSGSPGQSITISCTGTSSDVGSYNLVSWYQQHPGKAPKLMIYEGSKRPSGVSNRFSGSKSGNTASLTISGLQAEDEADYYCCSYAGSSTWVFGGGTKLTVLTTTPAPRPPTPAPTIASQPLSLRPEACRPAAGGAVHTRGLDFACDIYIWAPLAGTCGVLLLSLVITKRGRKKLLYIFKQPFMRPVQTTQEEDGCSCRFPEEEEGGCELRVKFSRSADAPAYQQGQNQLYNELNLGRREEYDVLDKRRGRDPEMGGKPRRKNPQEGLYNELQKDKMAEAYSEIGMKGERRRGKGHDGLYQGLSTATKDTYDALHMQALPPR
notes: also called anti-DLL3 CAR with 4E1 scFv, on primary T cells

From US20230287120A1 (ALLOGENE THERAPEUTICS, published 2023)
